# Values of other authors in patent US10889629B2, “Transfected T-cells and T-cell receptors for use in immunotherapy against cancers” (IMMATICS BIOTECHNOLOGIES GMBH, priority 2016, dated 2021).
# Molecular target: HLA-A*0201 molecule (Homo sapiens, UniProt P04439, D140Y/D185E/D98H/E176V/E277Q/G131W/G231S/I119V/I121R/I166T/I218V/L300P/L318F/N151K/N90K/P208A/P217A/Q86G/Q94H/R138H/R169H/T345S)
# Details: cited from earlier work
sequence,measurement,value
YLLEHVVRV (listed as Homo sapiens) [p286-1Y2L],binding affinity and stability towards HLA-A*0201 molecule,potent binding affinity and stability
